# Data from patent US20170122964.
# System: nucleosome on the remodeling DNA template with Atto 647N labeled histone H2B
substance,measurement,value
ACF remodeling complex,FRET signal (nucleosome sliding assay),"Nucleosome on the remodeling DNA template shows FRET signal, which is reduced over time by the remodeling complex."
